Experiment: yeast display, Sf9 membrane polyspecificity reagent, FACS + sequencing; frameworks hold sequencing errors
Outline: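 A nanobody's polyreactivity label depends on the gate it was sorted from. Yeast display cells were stained with 10% biotinylated, detergent-solubilized Sf9 membrane reagent for 1 hour at 4 °C, enriched on streptavidin microbeads and sorted by FACS. The low and high (top ~1%) gates were set on anti-HA fluorescence for expression and streptavidin fluorescence for reagent binding.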

| Sequence | polyreactivity (PSR sort gate) |
| --- | --- |
| QVQLVESGGGLVQAGGSLRLSCAASGFTFSCYAMGWYRQAPGKEREFVAAISRRGAITSYADSVKGRFTISRDNAKNTVYLQMNSLKPEDTAVYYCNARYPHYYYSAYNYWGQGSQVTVSS | high polyreactivity |
| QVQLVETGGGLVQAGGSLRLSCAASGSTFQLYAMGWYRQAPGKERDFVAAISNGGRTNYADSVKGRFTISRDNAKNTVYLQMTSLKPEDTAVYYCNADQVWWSFDRVLVGYEYWGKGTQVTVSS | low polyreactivity |
| QVQLVESGGGLVQAGGSLRLSCAASGITSDQNAMGWYRQAPGKERELVAAITRGGTTYYADSVKGRFTISRDNAKNTVYLQMNSLKPEDTAVYYCNARYYFRKQVRPFHIRYDYWGQGTQVTVSS | low polyreactivity |
| QVQLVESGGGLVQAGGSLRLSCAASGSILYVNAMGWYRQAPGKERELVASITDGGNTYYADSVKGRFTISRDNAKNTVYLQMNSLKPEDTAVYYCNAVGRIKVDYGLEYWGQGTQVTVSS | low polyreactivity |
| QDQLVESGGGLVQAGGSLRLSCAASGSIFYDKAMAWYRQAPGKEREFVASITNSGSTNYADSVKGRFTISRDNAKNTVYLQMNSLKAEDTAVYFCAAEVYVDYTGYSYFDYPYDYWGQGTHVTVSS | low polyreactivity |
| QVQLVESGGGLVQAGGSLRLSCAASGSTFRSYTMGWYRQAPGKERELVADINGTGGSTYYADSVKGRFTISRDNAKNTVYLQMNSLKPEDTAVYYCAADGYFRTVTSGWALRMGYWGQGTQVTVSS | high polyreactivity |
| QVQLVESGGGLVQAGGSLRLSCAPSGRMFVFYTMGWYRPAPGKESELVAYINSGGSTYYADSVKGRFTISRDNAKNSVYLQMNSLKPEDTAVYYCAAGPCRGPDSRWRYKYDYWGQGTQVTVSS | high polyreactivity |
| QVQLVESGGGLVQAGGSLRLSCAASGITFDGYAMGWYRQAPGKERELVAAITYSGGRTYYADSVKGRFTISRDNAKNTVYLQMNCLKPDDTAVYYCAVVSRRLYEYDYWGQGTQVTVSS | high polyreactivity |
| QVQLVESGGGLVQAGGSRRLSCAASGLIFVRYAMGWYRQAPGKERELVATISSRGASTYYADSVKGRFTISRDNAKNTVYFQMNSLKPEDTAVYYCNAGRLRRSYKPYDYWGQGTQVTVSS | high polyreactivity |
| QVQLEESGGGLVQAGGSLRLTCAASGFIFKSYTMGWYRQATGKEMELVAAITSTGGGTYYADSVKGRFTISRDNAKNTVYLQMNSLKPEDTAVYYCNARTYVTVDYDFWGQGTQVTVSS | high polyreactivity |
| QVQLVESGGGLVQAGGSLRLSCAASGRTLRTYGMGWYRQAPGKERELVARITIGGRTYYADSVKGRFTISRDNAKNTVYLQMNSLKPEDTAVYYCAARYAGGTSRILYGYWGQGTQVTVSS | high polyreactivity |
| QVQLVESGGGLVQAGGSLRLSCAASGRIFVYYAMGWYRPAPGKERELVAAITSGGSTYYADSVKGRFTISRDNANNTVYLQMNSLKPEDTAVYYSAAYRYYYLVYQQHREYGYWGQGSQVTVSS | high polyreactivity |
| QVQLVESGGGLVQAGGSLRLSCAASGGTFRAYAMGWYRQAPGKEREFVAAITWSGGRTYYADSVKGRFTISRDNANNTVYLQMNSLKPEDTEVYYCATDQGHYYHAEHDYWGQGTKVTVSS | low polyreactivity |
| QVQLVESGGGIVPAGGSLRLSCAASGLIFKTYTMGWSRQAPGKEREFVAAITTSGGSTYYADSVKGRFTISRDNAKNTVYLQMNSLKPEDTAVYSCGAVWWKSFQGSSYRMNYWGQGTQVTVSS | high polyreactivity |
| QVQLVESGGGLVQAGGSLRLSCAASGSIFTRYAMGGYRQAPGKERELVAAITAGGSSPYYADSVKGRFTISRDNAKNTVYLQMNSLKPEDTAVYYCNAVWWHPTDYDYWGQGSQVTVSS | low polyreactivity |
| QVHLVESGVGLVQAGGSLRLSCAASGYIFPYYTMGWYRQAPGKERELVAAITIGGSTYYADSVKGRFTISRDNAKNTVYLQMNSLKPEDTAVYYCAARSRYYDTRFDYWGQGTQVTVSS | low polyreactivity |
| QDQLVESGGGLVQAGGSLRLSCAASGYIFITKAMGLNRQAPGKERELVAAINSGGSTYYADSVKGRFTISRDNAKNTVYLQMKSLKPEDTAVYYCAAEYWVYYWHYYDYWGQGTQVTVSS | high polyreactivity |

From the nanobody polyreactivity screen of Harvey et al. (2022)
